“And” between values parts separate entries of the source, which are not always exact repeats. Identical values can stand only once.
Biological target: T1, rabbit GH receptor (rabbit) (UniProt P19941)
T1 sequence (looked up): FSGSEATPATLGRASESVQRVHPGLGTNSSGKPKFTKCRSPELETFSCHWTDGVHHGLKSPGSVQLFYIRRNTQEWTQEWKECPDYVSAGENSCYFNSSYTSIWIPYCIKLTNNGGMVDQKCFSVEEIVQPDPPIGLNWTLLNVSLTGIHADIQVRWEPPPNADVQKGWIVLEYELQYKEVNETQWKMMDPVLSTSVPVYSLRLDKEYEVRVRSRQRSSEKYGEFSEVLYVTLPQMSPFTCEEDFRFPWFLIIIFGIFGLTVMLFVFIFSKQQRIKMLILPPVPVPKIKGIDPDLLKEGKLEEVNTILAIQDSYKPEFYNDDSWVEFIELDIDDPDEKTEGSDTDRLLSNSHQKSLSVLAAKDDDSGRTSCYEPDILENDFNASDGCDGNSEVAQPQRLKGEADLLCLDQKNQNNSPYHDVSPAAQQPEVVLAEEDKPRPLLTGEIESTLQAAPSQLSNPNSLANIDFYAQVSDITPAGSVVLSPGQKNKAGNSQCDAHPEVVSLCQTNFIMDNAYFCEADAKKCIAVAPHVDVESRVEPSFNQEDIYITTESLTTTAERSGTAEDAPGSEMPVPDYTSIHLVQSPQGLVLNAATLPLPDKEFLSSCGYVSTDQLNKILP
Experiment: cell-based or functional assay

Substance | Mean EC50 (ng/ml), proliferation of GH-R4 cells (MTS) [ng/mL] | further results
PEG-S144C hGH (mono-PEGylated S144C) (from UniProt P01241 27-217) (ligand) | – | EC50 of single experiments, cell proliferation assay (Example 1): 40 ng/mL and 45 ng/mL
hGH cysteine mutein S144C (from UniProt P01241 27-217) (ligand) | 1.6 | –
hGH cysteine mutein T3C, disulfide-linked homodimer (from UniProt P01241 27-217) (ligand) | 1.4 | –
hGH cysteine mutein T148C (from UniProt P01241 27-217) (ligand) | – | Mean EC50 (ng/ml), proliferation of GH-R4 cells (MTS); T148C-lotA: 0.5 ng/mL; Mean EC50 (ng/ml), proliferation of GH-R4 cells (MTS); T148C-lotB: 2.5 ng/mL
wild-type rhGH (secreted from E. coli with the stII signal sequence) (from UniProt P01241 27-217) (ligand) | 0.8 | –

— patent publication US20050026834A1
